Test results as given in patent US20260049138A1 (Chugai, published 2026).
Positions count from the first letter of the chain named. Names may count otherwise.

B1: GLS3000 K107E one-arm antibody (antibody, human IgG1, kappa, L234A L235A, N297A, name in Kabat numbering)
heavy: QVQLVESGGGVVQPGRSLRLSCAASGFTFSNAWMHWVRQAPGKGLEWVAQIKAKSNNYATYYAESVKGRFTISRDDSKNSLYLQMNSLKTEDTAVYYCRYVHYGAYYGVDAWGQGTTVTVSSASTKGPSVFPLAPSSKSTSGGTAALGCLVKDYFPEPVTVSWNSGALTSGVHTFPAVLQSSGLYSLSSVVTVPSSSLGTQTYICNVNHKPSNTKVDKKVEPKSCDKTHTCPPCPAPEAAGGPSVFLFPPKPKDTLMISRTPEVTCVVVDVSHEDPEVKFNWYVDGVEVHNAKTKPREEQYASTYRVVSVLTVLHQDWLNGKEYKCKVSNKALPAPIEKTISKAKGQPREPQVYTLPPSRCELTKNQVSLSCAVKGFYPSDIAVEWESNGQPENNYKTTPPVLDSDGSFFLVSKLTVDKSRWQQGNVFSCSVMHEALHNHYTQKSLSLSPDYKDDDDK
chain: EPKSSDKTHTCPPCPAPELLGGPSVFLFPPKPKDTLMISRTPEVTCVVVDVSHEDPEVKFNWYVDGVEVHNAKTKPREEQYNSTYRVVSVLTVLHQDWLNGKEYKCKVSNKALPAPIEKTISKAKGQPREPQVCTLPPSRDELTKNQVSLWCLVKGFYPSDIAVEWESNGQPENNYKTTPPVLDSDGSFFLYSKLTVDKSRWQQGNVFSCSVMHEALHNRYTQKSLSLSP
light: DIVMTQSPLSLPVTPGEPASISCRSSQSLVHSNRNTYLHWYQQKPGQAPRLLIYKVSNRFSGVPDRFSGSGSGTDFTLKISRVEAEDVGVYYCGQGTQVPYTFGQGTKLEIERTVAAPSVFIFPPSDEQLKSGTASVVCLLNNFYPREAKVQWKVDNALQSGNSQESVTEQDSKDSTYSLSSTLTLSKADYEKHKVYACEVTHQGLSSPVTKSFNRGEC
B2: GLS3000 L27bS one-arm antibody (antibody, human IgG1, kappa, L234A L235A, N297A, name in Kabat numbering)
heavy: B1 heavy
chain: B1 chain
light: B1 light with L29S, E112K
B3: GLS3000 L27bM one-arm antibody (antibody, human IgG1, kappa, L234A L235A, N297A, name in Kabat numbering)
heavy: B1 heavy
chain: B1 chain
light: B1 light with L29M, E112K
B4: GLS3000 L27bW one-arm antibody (antibody, human IgG1, kappa, L234A L235A, N297A, name in Kabat numbering)
heavy: B1 heavy
chain: B1 chain
light: B1 light with L29W, E112K
B5: GLS3000 L27bF one-arm antibody (antibody, human IgG1, kappa, L234A L235A, N297A, name in Kabat numbering)
heavy: B1 heavy
chain: B1 chain
light: B1 light with L29F, E112K
B6: GLS3000 L27bI one-arm antibody (antibody, human IgG1, kappa, L234A L235A, N297A, name in Kabat numbering)
heavy: B1 heavy
chain: B1 chain
light: B1 light with L29I, E112K
B7: GLS3000 L27bD one-arm antibody (antibody, human IgG1, kappa, L234A L235A, N297A, name in Kabat numbering)
heavy: B1 heavy
chain: B1 chain
light: B1 light with L29D, E112K
B8: GLS3000 L27bV one-arm antibody (antibody, human IgG1, kappa, L234A L235A, N297A, name in Kabat numbering)
heavy: B1 heavy
chain: B1 chain
light: B1 light with L29V, E112K
B9: GLS3000 L27bP one-arm antibody (antibody, human IgG1, kappa, L234A L235A, N297A, name in Kabat numbering)
heavy: B1 heavy
chain: B1 chain
light: B1 light with L29P, E112K
B10: GLS3000 L27bE one-arm antibody (antibody, human IgG1, kappa, L234A L235A, N297A, name in Kabat numbering)
heavy: B1 heavy
chain: B1 chain
light: B1 light with L29E, E112K

biological target: T1, CD3ε homodimer protein (human, UniProt P07766 23-126, limits assumed); assay: SPR Biacore T200, CD3ε homodimer on chip;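 also: Light-chain single-residue variant antibodies injected over amine-coupled CD3ε homodimer on a CM4 chip at 25 °C, bound amount divided by that of the GLS3000-containing antibody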
T1 construct: also called CD3 (CD3ε)
T1 sequence (P07766 23-126 limits assumed): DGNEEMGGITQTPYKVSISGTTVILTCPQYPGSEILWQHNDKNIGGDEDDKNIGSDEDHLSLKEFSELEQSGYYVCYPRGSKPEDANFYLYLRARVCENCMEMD

ratio of amount bound vs unaltered GLS3000	Binder
0.94	B1
0.71	B2
0.71	B3
0.26	B4
0.42	B5
1.19	B6
0.17	B7
1.12	B8
0.91	B9
0.17	B10
